According to article PMC4662854, “Structure and function of the N‐terminal domain of the human mitochondrial calcium uniporter” (EMBO Reports, 2015):

Biological target: the molecule itself
Assay: cross-linking; glutaraldehyde cross-linking of MCU NTD-E in solution, in PBS and in crystallization conditions

B1: MCU NTD-E (extended N-terminal domain of MCU, residues 75-185) (domain or fragment, human, UniProt Q8NE86-1 75-185, looked up)
chain: VTVVYQNGLPVISVRLPSRRERCQFTLKPISDSVGVFLRQLQEEDRGIDRVAIYSPDGVRVAASTGIDLLLLDDFKLVINDLTYHVRPPKRDLLSHENAATLNDVKTLVQQ
notes: mitochondrial calcium uniporter (MCU), human, NP_612366, residues 75-185; In the crystal residues 183-185 were not modelled and the imidazole ring of His170 is possibly modified by unidentified adducts; source: purified (Ni-NTA, SEC on Superdex 75) by a procedure similar to that of T4 lysozyme-MCU NTD; cloned into pColdII
binding result: binds
